Assay results taken from patent US12460006B2, “Antibodies against integrin alpha 11 beta 1” (Momenta Pharmaceuticals, Inc., priority 2019, dated 2025).
Where a chain is given by its changes, count along the chain named.

Tests used:
[1] = test system: CHO-K1 cells expressing human α11; experiment: Cell adhesion inhibition (xCelligence), type I collagen; format: cell-based; conditions: CHO-K1 hu α11 cells; read-out: IC50 of blocking cell adhesion to type I collagen
Procedure: 0.6×10^6 cells/mL were incubated with each antibody at a range of concentrations for 20 minutes at 37° C. E-Plate VIEW 96 PET plate coated with 100 ng/mL type I collagen or PBS overnight at room temperature was blocked in 3% BSA for 1 house at room temperature. After washing the plate with PBS, cell and antibody mixture was added to the wells and the plate was places into an xCelligence machine. Cell adhesion was recorded over 6 hours. The time point of maximum cell adhesion was used for comparison relative to control.
A CHO-K1 hu α11 cell line was used to assess the ability of mAbs to block α11β1-mediated binding to type I collagen. […] In the “Untreated” condition, cells were plated on type I collagen but no antibody was added and in the “Uncoated” condition, cells were seeded onto BSA-coated wells containing no type I collagen. Statistics were performed using one-way ANOVA followed by Dunnett's multiple comparisons test. […] Therefore, it is possible that these mAbs bind on an α11β1 domain that keeps the integrin in a low or intermediate affinity state. […] Nine human mAbs were also tested for their ability to inhibit the binding of human CHO-α11 cells to type I collagen.

[2] = test system: CHO cell lines expressing α11; experiment: Collagen gel contraction assay; format: cell-based, human; conditions: vs untreated
Procedure: 24-well plates were blocked with 2% BSA in PBS overnight at 37° C. The following day, the plates were washed 3 times with PBS before being used in the assay. Human CHO cell lines expressing α11 were harvested and resuspended at 1.25×10^6 in ExpiCHO Expression Medium (Gibco™ Cat #A2910002). The collagen gel solution was prepared by diluting 3 mg/mL stock collagen type I (Gibco™ Collagen I Rat Protein, Tail Cat #A1048301) to 1 mg/mL in the media containing the CHO cells. Sodium hydroxide was added to the solution to neutralize the pH and 400 μL of the collagen solution was added to each well of the 24-well plates. For the wells where the antibodies were included in the collagen gel solution, CHO cells were prepared at 2.5×10^6 and the antibodies were prepared at 2× final concentration in ExpiCHO media. The cells and antibodies were then combined 1:1 before the addition of the stock collagen type 1. The gels were allowed to polymerize for 60 minutes at 37° C. Antibodies were added to the ExpiCHO media, which was then layered on top of the polymerized gel (400 μL/well). The gels were incubated for 6 days at 37° C. before gel contraction was quantified. Images of each well were analyzed using Image J and gel contraction was determined as a percentage of the initial gel area.
Selected exemplary antibodies were tested for the ability to inhibit cell-mediated 3D gel contraction because this ability is directly linked to the functionality of the exemplary antibodies.

α11β1 I Domain = molecular target: T1, α11β1 I Domain (Homo sapiens, UniProt Q9UKX5); experiment: SPR binding to α11β1 I Domain; conditions: SPR data
T1 sequence (Q9UKX5 164-345 limits assumed): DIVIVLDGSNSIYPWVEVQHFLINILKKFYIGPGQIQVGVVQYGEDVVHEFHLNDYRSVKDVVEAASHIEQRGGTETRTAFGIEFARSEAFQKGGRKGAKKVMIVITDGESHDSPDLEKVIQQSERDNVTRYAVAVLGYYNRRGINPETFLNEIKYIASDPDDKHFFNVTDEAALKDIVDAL
Procedure: (§1) The affinity of antibodies for human α11β1 was measured by surface plasmon resonance assay (SPR). Affinity was measured at pH 7.6 and 25° C. with a Biacore T200 instrument. Anti-HIS antibody was immobilized on the SPR sensor surface using EDC/NHS covalent attachment. HIS-tagged human α11β1 was captured on the sensor surface and a single-cycle kinetics assay was used. Increasing concentrations of test antibody were injected in series over the sensor-bound α11β1. Dissociation was monitored for 1000 seconds. A sensor surface with only anti-HIS antibody and a series of blank injections were used to double-reference subtract the data. A 1:1 Langmuir model was fit to the data to estimate the kinetic association and dissociation constants. The affinity (equilibrium dissociation constant) of the interaction was calculated by dividing the kinetic dissociation constant by the kinetic association constant. Between injection cycles α11β1 and bound antibody were removed with an injection of 10 mM glycine at pH 1.5.
(§2) The binding affinity of antibodies for the α11β1 Headpiece and α11β1 I Domain as measured by SPR is shown in FIG. 10A and FIG. 10B, respectively.

α11β1 Headpiece = experiment: SPR binding to α11β1 Headpiece; parameters: species or system human; conditions: SPR data
Procedure: as §1, §2

B1: 1994_01_C07: fully human anti-α11β1 mAb (phage display); HCDR3 SEQ ID NO: 267, LCDR3 SEQ ID NO: 271 (antibody, V domains shown)
VH: QVQLVQSGAEVKKPGASVKVSCKASGYTFTSYGISWVRQAPGQGLEWMGWISAYNGNTNYAQKLQGRVTMTTDTSTSTAYMELRSLRSDDTAAYYCARVTGITGTTIDPWGQGTMVTVSS
VL: DIQMTQSPSSLSASVGDRVTITCRASQSISSYLNWYQQKPGKAPKLLIYDASSLESGVPSRFSGSGSGTEFTLTISSLQPDDFAVYYCQQYNNWPQTFGQGTKVEIK
Which results are given for B1?
IC50 [1]: 3.3 nM; inhibition of CHO-hu α11-mediated collagen gel contraction [2]: inhibited CHO-hu α11-mediated collagen gel contraction; binding to the I domain of α11β1 (α11β1 I Domain): do not bind; binding to the headpiece domain of α11β1 (α11β1 Headpiece): do not bind

B2: 1994_01_D12: fully human anti-α11β1 mAb (phage display); HCDR3 SEQ ID NO: 267, LCDR3 SEQ ID NO: 334 (antibody, V domains shown)
VH: B1 VH with A16S, D73N, A93V, M115L
VL: DIQMTQSPSSLSASVGDRVTITCRASQSISSYLNWYRQKPGKAPKLLIYAASSLQSGVPSRFSGSGSGTDFTLTISSLQPEDAATYYCQQYDSQSGTFGQGTKLEIK
With B2 as the molecule, how does the “inhibition of CHO-hu α11-mediated collagen gel contraction” value [2] read?
The value was “inhibited CHO-hu α11-mediated collagen gel contraction”.
